Target: human Factor X activated (human) (UniProt P00742)
Test: cell-based or functional assay

UniProt P00742, sequence (P00742 235-488 limits assumed): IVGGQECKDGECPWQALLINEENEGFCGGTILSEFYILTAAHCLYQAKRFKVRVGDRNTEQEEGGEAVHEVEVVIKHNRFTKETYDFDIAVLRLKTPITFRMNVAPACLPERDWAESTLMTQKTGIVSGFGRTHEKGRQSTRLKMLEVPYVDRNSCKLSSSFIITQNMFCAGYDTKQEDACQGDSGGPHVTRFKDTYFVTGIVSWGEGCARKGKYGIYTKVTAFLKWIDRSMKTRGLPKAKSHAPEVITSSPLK

Amblyomin-X recombinant protein
inhibition of the amidolytic activity of human Factor X activated (dose at which inhibition is seen): 5 to 10 µM
